For this test, the target named is T1, rec. human IGF-1R (R&D Systems, 391-GR) (human, UniProt P08069 31-932).
T1 construct: Bought soluble protein, used as the analyte in SPR; also called rhIGF1R; recombinant human IGF-1R
Put plainly: SPR (Biacore T200), ligand immobilised on CM5 chip, rec. human IGF-1R as analyte, 1:1 model. In general terms: SPR reads the build-up and loss of mass on a sensor chip optically.

T1 sequence (P08069 31-932 limits assumed): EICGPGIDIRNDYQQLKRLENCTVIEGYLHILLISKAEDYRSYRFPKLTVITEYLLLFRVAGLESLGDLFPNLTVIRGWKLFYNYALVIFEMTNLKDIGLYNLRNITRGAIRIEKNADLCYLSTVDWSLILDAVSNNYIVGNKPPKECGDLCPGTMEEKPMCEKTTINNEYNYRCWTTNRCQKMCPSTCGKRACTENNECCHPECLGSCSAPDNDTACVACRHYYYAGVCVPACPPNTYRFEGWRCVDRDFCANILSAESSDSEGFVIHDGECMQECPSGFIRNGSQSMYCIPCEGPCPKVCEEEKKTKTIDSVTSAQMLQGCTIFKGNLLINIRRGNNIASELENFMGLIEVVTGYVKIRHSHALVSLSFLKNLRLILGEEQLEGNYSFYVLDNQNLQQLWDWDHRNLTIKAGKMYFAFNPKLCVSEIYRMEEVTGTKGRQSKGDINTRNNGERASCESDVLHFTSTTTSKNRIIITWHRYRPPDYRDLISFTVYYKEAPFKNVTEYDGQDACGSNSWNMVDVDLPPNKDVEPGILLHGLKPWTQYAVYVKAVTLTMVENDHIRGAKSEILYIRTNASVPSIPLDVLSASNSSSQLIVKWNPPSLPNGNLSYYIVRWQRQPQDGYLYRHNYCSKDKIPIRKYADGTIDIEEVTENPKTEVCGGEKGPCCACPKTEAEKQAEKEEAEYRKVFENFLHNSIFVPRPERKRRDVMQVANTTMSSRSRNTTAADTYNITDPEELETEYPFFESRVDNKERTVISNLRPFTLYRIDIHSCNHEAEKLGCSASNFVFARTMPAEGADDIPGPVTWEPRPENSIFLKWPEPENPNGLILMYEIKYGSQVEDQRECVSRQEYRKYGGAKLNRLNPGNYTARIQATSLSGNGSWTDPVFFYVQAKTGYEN
Description: The binding properties were characterized by SPR using a Biacore T200 instrument at 25° C. […] The analyte concentration ranges were adapted to the individual interaction and ranged from 1000-3.9 nM (IGF-1R). […] Kinetic rate constants and KD were calculated by fitting double-referenced sensorgrams to a 1:1 binding model.
A direct binding assay was performed. […] The resulting sensorgrams were fitted to a 1:1 interaction model to calculate the equilibrium dissociation constants (KD).

B1: hIGF-1-Ea-Fc_mut 13/2_A (Fc fusion)
chain: TLCGAELVDALQFVCGDRGFYFNKPTGYGSSSQAAPQTSIVDECCFRSCDLRRLEMYCAPLKPAVQAQQHTDMPKTQKEVHLKNASRGSAGNKNYQMCPPCPAPEAAGGPSVFLFPPKPKDTLMISRTPEVTCVVVDVSHEDPEVKFNWYVDGVEVHNAKTKPREEQYNSTYRVVSVLTVLHQDWLNGKEYKCKVSNKALPAPIEKTISKAKGQPREPQVYTLPPSREEMTKNQVSLTCLVKGFYPSDIAVEWESNGQPENNYKTTPPVLDSDGSFFLYSKLTVDKSRWQQGNVFSCSVMHEALHNHYTQKSLSLSPGK
notes: Modified human IGF-1-Ea precursor joined by hinge 1 to a hIgG1 LALA Fc
With B1, the binding result was “binds”.
